Source: FireProtDB (doi:10.1021/bi048182n)
“And” between values parts separate entries of the source, which are not always exact repeats. Equal values may be shown once.

Settings: Bos taurus, pH 8.4, 23 °C, GdnHCl, HPLC, Tris-HCl 0.1 M, reversible: yes, whole UniProt chain shown

B1: Alpha-lactalbumin wild type, P00711 (protein)
chain: MMSFVSLLLVGILFHATQAEQLTKCEVFRELKDLKGYGGVSLPEWVCTTFHTSGYDTQAIVQNNDSTEYGLFQINNKIWCKDDQNPHSSNICNISCDKFLDDDLTDDIMCVKKILDKVGINYWLAHKALCSEKLDQWLCEKL
- denaturant m value (CaCl2 5 mM): 2.1 kcal/mol/M and 2.4 kcal/mol/M
- denaturant midpoint (higher = more stable) (CaCl2 5 mM): 2.15 M and 1.4 M
- unfolding free energy (CaCl2 5 mM): 4.52 kcal/mol and 3.36 kcal/mol
- denaturant m value: 2.3 kcal/mol/M and 3.4 kcal/mol/M
- denaturant midpoint (higher = more stable): 1.1 M and 0.4 M
- unfolding free energy: 2.53 kcal/mol and 1.36 kcal/mol
